This is an account of results in patent US20230037911A1 (SHANGHAI HENLIUS BIOTECH, published 2023).

First the molecules themselves.
T1: recombinant ECD of human FcγRIIB (human, UniProt P31994 43-217)
T1 construct: extracellular domain
T1 sequence (looked up): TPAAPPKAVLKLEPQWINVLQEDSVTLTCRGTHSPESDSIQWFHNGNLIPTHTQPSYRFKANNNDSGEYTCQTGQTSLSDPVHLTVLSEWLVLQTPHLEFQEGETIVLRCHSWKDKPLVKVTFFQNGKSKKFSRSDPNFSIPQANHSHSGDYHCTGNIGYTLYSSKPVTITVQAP

T2: recombinant ECD of mouse FcγRIV (mouse, UniProt A0A0B4J1G0 21-203)
T2 sequence: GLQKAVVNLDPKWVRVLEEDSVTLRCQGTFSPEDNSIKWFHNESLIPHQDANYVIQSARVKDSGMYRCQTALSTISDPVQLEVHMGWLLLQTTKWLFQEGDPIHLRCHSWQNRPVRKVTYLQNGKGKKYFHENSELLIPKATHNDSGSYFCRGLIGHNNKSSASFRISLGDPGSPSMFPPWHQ

B1: 2A3-LT-Fc VLPLL (Fc mutations L235V, F243L, R292P, Y300L and P396L) (Fc fusion)
chain: QVQLVESGGGVVQPGRSLRLSCAASGGSFSSYPMGWFRQAPGKERESVAAISSDLRFTYYADSVKGRFTISRDNSKNTLYLQMNSLRAEDTAVYYCAARTSGVGYYSRAQWYDYWGQGTLVTVSSEPKSCDKTHTCPPCPAPELVGGPSVFLLPPKPKDTLMISRTPEVTCVVVDVSHEDPEVKFNWYVDGVEVHNAKTKPPEEQYNSTLRVVSVLTVLHQDWLNGKEYKCKVSNKALPAPIEKTISKAKGQPREPQVYTLPPSREEMTKNQVSLTCLVKGFYPSDIAVEWESNGQPENNYKTTPLVLDSDGSFFLYSKLTVDKSRWQQGNVFSCSVMHEALHNHYTQKSLSLSPGK
notes: also called VLPLL mutant; VPVLL (as printed once)
B2: 2A3-LT-Fc-DLE (Fc mutations S239D, A330L and I332E) (Fc fusion)
chain: B1 chain with V145L, S149D, L153F, P202R, L210Y, A240L, I242E, L306P
notes: also called DLE mutant
B3: 1C12-chimeric (llama VHH of 1C12 with human IgG1 CH2 and CH3 domains), bivalent (Fc fusion)
chain: QVQLVESGGGLVQTGDSLRLSCAASSRIFSRYGMGWFRQAPGKEREFVAAISWNGASTTYTDSVKGRFTISRDSAENTTYLQINSLRPEDTAVYYCAADPWGAVKLGTAEYEYWGQGTQVTVSS
notes: also called 1C12 chimeric parental clone; not shown: human IgG1 CH2 and CH3 domains
B4: 1G1-chimeric (llama VHH of 1G1 with human IgG1 CH2 and CH3 domains), bivalent (Fc fusion)
chain: QVQLVESGGGLVQAGDSLRLSCVASGPSFSSYPMGWFRQGPGKERESVAAISSDGRFTYYAASVKGRFTISKDNAKSAAFLQMNSLKPEDTAVYYCAARDSGSGYYSRAQWYDYWGQGTLVTVSS
notes: also called 1G1 chimeric clone; not shown: human IgG1 CH2 and CH3 domains
B5: human TIGIT stably expressed on cells (Jurkat; 293T) (receptor)
chain: MMTGTIETTGNISAEKGGSIILQCHLSSTTAQVTQVNWEQQDQLLAICNADLGWHISPSFKDRVAPGPGLGLTLQSLTVNDTGEYFCIYHTYPDGTYTGRIFLEVLESSVAEHGARFQIPLLGAMAATLVVICTAVIVVVALTRKKKALRIHSVEGDLRRKSAGQEEWSPSAPSPPGSCVQAEAAPAGLCGEQRGEDCAELHDYFNVLSYRSLGNCSFFTETG
notes: the expression vector's insert is not described further; also called h-TIGIT; human TIGIT transfected Jurkat cells

Changes are numbered by the printed parent chain. Names and notes keep the numbering of the source.

For test [1], the target named is T1, recombinant ECD of human FcγRIIB. The test is described as follows: Octet (ForteBio) biolayer interferometry; sensor loaded with recombinant ECD of human FcγRIIB; antibody at 5 concentrations (not given). The source says: (§1) Y axis represents association, dissociation & Rmax. X axis represents time in second.
For test [2], the target named is T2, recombinant ECD of mouse FcγRIV. The test is described as follows: Octet (ForteBio) biolayer interferometry; sensor loaded with recombinant ECD of mouse FcγRIV; antibody at 5 concentrations (not given).
Excerpt: as §1

In test [3] the target is T3, recombinant ECD of human FcγRIIIA (human, UniProt P08637 17-208).
T3 construct: extracellular domain
T3 sequence (P08637 17-208): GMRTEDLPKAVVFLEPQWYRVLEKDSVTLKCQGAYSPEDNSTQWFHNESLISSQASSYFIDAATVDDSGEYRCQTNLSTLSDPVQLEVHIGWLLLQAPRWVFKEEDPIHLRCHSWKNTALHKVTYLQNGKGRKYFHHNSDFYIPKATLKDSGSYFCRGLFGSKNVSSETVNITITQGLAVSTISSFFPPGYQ
The test is described as follows: Octet (ForteBio) biolayer interferometry; sensor loaded with recombinant ECD of human FcγRIIIA; antibody at 5 concentrations (not given).
Excerpt: as §1

In test [4] the target is human FcγRIIIA on NFAT reporter Jurkat cells (human, UniProt P08637 17-254). The test is described as follows: cell-based or functional assay.
Sequence of human FcγRIIIA on NFAT reporter Jurkat cells (P08637 17-254): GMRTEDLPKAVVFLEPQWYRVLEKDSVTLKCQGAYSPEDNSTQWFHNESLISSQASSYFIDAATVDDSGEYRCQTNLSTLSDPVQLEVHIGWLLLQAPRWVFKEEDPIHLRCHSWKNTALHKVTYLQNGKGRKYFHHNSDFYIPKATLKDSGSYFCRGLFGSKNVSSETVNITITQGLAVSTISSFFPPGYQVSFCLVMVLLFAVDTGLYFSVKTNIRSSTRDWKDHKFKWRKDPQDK
For test [5], the target named is B5. The test is described as follows: cell-based or functional assay.
The target of test [6] is B5. The test is described as follows: flow cytometry, whole cell binding on h-TIGIT transfected Jurkat cells; anti-human IgG Fc AlexaFluor488 secondary. The procedure:
(§2) The binding affinities of the humanized bivalent antibodies to human TIGIT were determined by whole cell binding to h-TIGIT stably expressed on Jurkat cells. Briefly, antibodies were incubated with h-TIGIT transfected Jurkat cells (0.2×10⁶/well in 100 μl) for 30 min in FACS buffer. The cells were washed once, then incubated with anti-human IgG Fc AlexaFluor488 (1:500).

In test [7] the target is B5. The test is described as follows: flow cytometry, whole cell binding on Jurkat cells stably expressing human TIGIT; Alexa Fluor 488 anti-human IgG Fc secondary. The source says:
(§3) FIGS. 1A-1C depict whole cell binding of representative VHH bivalent antibodies to human TIGIT determined by flowcytometry assays. […] Y axis represents Mean Fluorescence Intensity of AlexaFlour 488. X axis represents antibody concentrations in nanomolar. […] FIG. 1C is a schematic of the structure of a TIGIT VHH bivalent antibody.
(§4) Jurkat cells stably expressing human TIGIT and NFAT reporter gene were established. Specifically, Jurkat cells were transfected with human TIGIT expression vector by electroporation, and cells stably expressing human TIGIT were selected by 1 μg/ml puromycin during cell culture. Representative antibody clones were incubated at different concentrations with h-TIGIT stably expressing Jurkat cells (0.2×10⁶/ml) in 100 μl/well in 96-well plate in FACS buffer (PBS with 1.5% FBS) for 30 min. After washing, Alexaflour 488 conjugated anti-human IgG Fc secondary antibody (Alexa Fluor® 488 AffiniPure Goat Anti-Human IgG, Fcγ fragment specific, Jackson labs, 1:500 dilution) was added and incubated for 30 min. After washing, mean fluorescence intensity was measured using CytoFlex (Beckman Coulter) by gating live cell population. Binding affinity was calculated using GraphPad Prism.

The target in test [8] is B5. The test is described as follows: cell-based or functional assay. The source holds these as a separate data set.
Test [9] addresses T4, 1G1-F-A-ERES humanized bivalent antibody (human, UniProt P01857-1 104-330 = IgG part, limits assumed).
T4 construct: domain: CH2 and CH3; Called humanized bivalent antibody; the Fc part is not restated
The test is described as follows: flow cytometry, whole cell binding on h-TIGIT transfected Jurkat cells; anti-human IgG Fc AlexaFluor488 secondary. On the procedure: as §2

Test [10] concerns the target T5, 1C12-GLEW humanized bivalent antibody (human, UniProt P01857-1 104-330 = IgG part, limits assumed).
T5 construct: domain: CH2 and CH3; Called humanized bivalent antibody; the Fc part is not restated; also called 1C12(F-GLEW)
The description is as above. On the procedure:
as §2

Test [11] deals with T6, 1C12-EREW humanized bivalent antibody (human, UniProt P01857-1 104-330 = IgG part, limits assumed).
T6 construct: domain: CH2 and CH3; Called humanized bivalent antibody; the Fc part is not restated; also called 1C12 (F-EREW)
The test is described as above. The procedure: as §2

In test [12] the target is T7, 1C12-EREF humanized bivalent antibody (human, UniProt P01857-1 104-330 = IgG part, limits assumed).
T7 construct: domain: CH2 and CH3; Called humanized bivalent antibody; the Fc part is not restated; also called 1C12 (F-EREF)
The test is described as above. The procedure:
as §2

In test [13] the target is T8, 1G1-F-G-ERES humanized bivalent antibody (human, UniProt P01857-1 104-330 = IgG part, limits assumed).
T8 construct: domain: CH2 and CH3; Called humanized bivalent antibody; the Fc part is not restated
The test is described as above. The procedure:
as §2

Test [14] has as its target T9, 2B10 bivalent VHH antibody (VHH with human CH2 and CH3) (human, UniProt P01857-1 104-330 = IgG part, limits assumed).
T9 construct: domain: CH2 and CH3
The test is described as follows: flow cytometry, whole cell binding on Jurkat cells stably expressing human TIGIT; Alexa Fluor 488 anti-human IgG Fc secondary.
Excerpt: as §3, §4

The target in test [15] is T10, 3G7 bivalent VHH antibody (VHH with human CH2 and CH3) (human, UniProt P01857-1 104-330 = IgG part, limits assumed).
T10 construct: domain: CH2 and CH3
T10 sequence (P01857 other isoform, or with tags, fused parts or gaps limits assumed): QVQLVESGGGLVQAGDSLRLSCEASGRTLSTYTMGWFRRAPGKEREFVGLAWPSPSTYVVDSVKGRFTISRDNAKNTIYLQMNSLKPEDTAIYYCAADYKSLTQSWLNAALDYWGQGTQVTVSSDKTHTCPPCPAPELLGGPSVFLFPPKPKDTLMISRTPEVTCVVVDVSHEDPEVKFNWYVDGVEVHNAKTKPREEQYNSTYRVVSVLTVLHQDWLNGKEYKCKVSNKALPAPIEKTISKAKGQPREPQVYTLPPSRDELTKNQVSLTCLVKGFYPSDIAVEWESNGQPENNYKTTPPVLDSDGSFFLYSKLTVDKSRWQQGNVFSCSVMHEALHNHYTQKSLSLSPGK
The test is described as above.
Excerpt: as §3, §4

The target in test [16] is T11, 15A5 bivalent VHH antibody (VHH with human CH2 and CH3) (human, UniProt P01857-1 104-330 = IgG part, limits assumed).
T11 construct: domain: CH2 and CH3
T11 sequence (P01857 other isoform, or with tags, fused parts or gaps limits assumed): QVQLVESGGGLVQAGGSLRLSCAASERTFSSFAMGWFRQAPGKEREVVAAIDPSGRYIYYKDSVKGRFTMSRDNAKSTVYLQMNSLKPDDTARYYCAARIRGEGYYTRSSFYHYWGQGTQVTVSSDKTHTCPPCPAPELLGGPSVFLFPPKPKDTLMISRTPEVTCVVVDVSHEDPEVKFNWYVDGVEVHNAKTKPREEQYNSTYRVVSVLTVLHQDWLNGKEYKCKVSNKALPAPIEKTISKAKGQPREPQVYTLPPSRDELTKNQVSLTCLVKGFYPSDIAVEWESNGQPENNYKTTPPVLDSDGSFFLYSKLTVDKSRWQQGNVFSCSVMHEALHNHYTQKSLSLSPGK
Described as above.
Excerpt: as §3, §4

In test [17] the target is T12, 3G6 bivalent VHH antibody (VHH with human CH2 and CH3) (human, UniProt P01857-1 104-330 = IgG part, limits assumed).
T12 construct: domain: CH2 and CH3
T12 sequence (P01857 other isoform, or with tags, fused parts or gaps limits assumed): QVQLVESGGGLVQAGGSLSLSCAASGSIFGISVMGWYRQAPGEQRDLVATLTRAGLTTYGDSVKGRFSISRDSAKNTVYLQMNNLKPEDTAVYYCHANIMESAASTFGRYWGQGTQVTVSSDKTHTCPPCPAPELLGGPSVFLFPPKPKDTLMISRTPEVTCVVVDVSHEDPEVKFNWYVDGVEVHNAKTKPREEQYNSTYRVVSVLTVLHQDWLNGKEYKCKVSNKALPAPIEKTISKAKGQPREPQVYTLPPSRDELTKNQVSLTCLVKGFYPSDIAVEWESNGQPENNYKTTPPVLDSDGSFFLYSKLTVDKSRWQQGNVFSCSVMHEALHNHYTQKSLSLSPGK
The description is as above.
Excerpt: as §3, §4

In test [18] the target is T13, 2B7 bivalent VHH antibody (VHH with human CH2 and CH3) (human, UniProt P01857-1 104-330 = IgG part, limits assumed).
T13 construct: domain: CH2 and CH3; Expressed in ExpiCHO, Protein A purified
T13 sequence (P01857 other isoform, or with tags, fused parts or gaps limits assumed): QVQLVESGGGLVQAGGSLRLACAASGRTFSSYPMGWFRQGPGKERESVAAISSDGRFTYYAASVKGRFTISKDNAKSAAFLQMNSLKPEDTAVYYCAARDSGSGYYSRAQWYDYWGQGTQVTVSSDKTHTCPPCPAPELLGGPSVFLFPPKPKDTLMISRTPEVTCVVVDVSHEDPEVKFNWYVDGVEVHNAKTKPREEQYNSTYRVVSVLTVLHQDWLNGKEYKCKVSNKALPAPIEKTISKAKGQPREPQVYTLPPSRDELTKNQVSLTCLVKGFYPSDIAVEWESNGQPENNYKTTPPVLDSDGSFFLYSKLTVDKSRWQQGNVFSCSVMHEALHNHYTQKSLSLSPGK
Described as above.
Excerpt: as §3, §4

Test [19] addresses T14, 13H11 bivalent VHH antibody (VHH with human CH2 and CH3) (human, UniProt P01857-1 104-330 = IgG part, limits assumed).
T14 construct: domain: CH2 and CH3
Described as above.
Excerpt: as §3, §4

T14 sequence (P01857 other isoform, or with tags, fused parts or gaps limits assumed): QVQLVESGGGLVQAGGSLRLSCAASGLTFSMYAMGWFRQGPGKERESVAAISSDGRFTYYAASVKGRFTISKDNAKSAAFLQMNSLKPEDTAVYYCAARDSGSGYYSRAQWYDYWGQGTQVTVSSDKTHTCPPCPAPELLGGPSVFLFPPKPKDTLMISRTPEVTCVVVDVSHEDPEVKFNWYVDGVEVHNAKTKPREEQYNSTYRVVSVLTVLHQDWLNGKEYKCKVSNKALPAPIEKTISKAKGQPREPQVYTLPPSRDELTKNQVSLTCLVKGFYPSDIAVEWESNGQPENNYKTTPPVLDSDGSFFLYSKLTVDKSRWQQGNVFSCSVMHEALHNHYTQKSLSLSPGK
T9 sequence (P01857 other isoform, or with tags, fused parts or gaps limits assumed): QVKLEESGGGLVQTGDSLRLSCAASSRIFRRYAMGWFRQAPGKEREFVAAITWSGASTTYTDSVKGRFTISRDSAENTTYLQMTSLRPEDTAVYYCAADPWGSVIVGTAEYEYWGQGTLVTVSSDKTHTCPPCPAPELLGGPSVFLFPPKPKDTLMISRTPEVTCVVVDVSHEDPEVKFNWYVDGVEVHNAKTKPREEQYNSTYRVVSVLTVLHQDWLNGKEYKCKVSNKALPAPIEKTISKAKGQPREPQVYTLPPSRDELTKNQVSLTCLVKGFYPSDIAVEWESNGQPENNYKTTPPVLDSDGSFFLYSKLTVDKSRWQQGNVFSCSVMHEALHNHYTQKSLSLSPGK

Regarding B1, the binding result in test [1], in test [2] and in test [3] was “binds” in each case.
In the case of B2, the binding result in test [1] is on record as “binds”. In test [2], the binding result is given as “binds”. Besides, in test [4], the “EC50 (nM), FcγRIIIA-mediated NFAT luciferase reporter activity, Average” value stood at 0.024 nM; the “EC50 (nM), FcγRIIIA-mediated NFAT luciferase reporter activity, Exp 1” value was 0.027 nM; the “EC50 (nM), FcγRIIIA-mediated NFAT luciferase reporter activity, Exp 2” value was found to be 0.0295 nM; the “EC50 (nM), FcγRIIIA-mediated NFAT luciferase reporter activity, Exp 3” value came to 0.018 nM. Moreover, the “EC50 (nM), FcγRIIIA-mediated NFAT luciferase reporter activity, Exp 4” value in test [4] came out at 0.02 nM. Also, in test [5], the “EC50 (nM), TIGIT blockade NFAT luciferase reporter assay, Average” value worked out at 0.97 nM; the “EC50 (nM), TIGIT blockade NFAT luciferase reporter assay, Exp 1” value worked out at 0.67 nM; the “EC50 (nM), TIGIT blockade NFAT luciferase reporter assay, Exp 2” value was 0.92 nM; the “EC50 (nM), TIGIT blockade NFAT luciferase reporter assay, Exp 3” value worked out at 1.32 nM.
On to B3, for which the figures for the “EC50 (read off the curve)” value in [6] and in [7] were roughly 0.03 nM and roughly 0.04 nM, respectively. Also, the “EC50 (read off the curve); NFAT luciferase reporter (RLU), h-TIGIT/NFAT Jurkat cells with PVR Raji cells and SEE” value in [8] was roughly 0.8 nM.
On the same counts, the results for B4 are roughly 0.08 nM, roughly 0.1 nM and roughly 1 nM.
Take B5: the binding result in test [9], in test [10], in [11], in test [12], in test [13] and in test [14] was “binds” each time. Besides, the binding result in test [15], in test [16], in test [17], in [18] and in [19] was “binds” each time.
